B1: PKD2L1 (parent)
chain: SGPEAARAGGWVSGEEFYMLTRRV

Variants of: B1
Experiment: protein stability index of a GFP-peptide fusion (GPS, HEK-293T) (PSI 1-6); higher = more stable
Settings: c terminus: a fixed tail appended
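Further: lentivirally expressed fusions sorted by FACS into six bins by GFP to DsRed ratio, PSI derived from sequencing read proportions per bin multiplied by bin number.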

Compared with SGPEAARAAGWVSGEEFYMLTRRV [G9A], SGPEAARAKGWVSGEEFYMLTRRV [G9K] is higher in protein stability index: 1.92 for the first, 1.97 for the second.

First: SGPEAARAPGWVSGEEFYMLTRRV [G9P]
Second: SGPEAARADGWVSGEEFYMLTRRV [G9D]
The protein stability index of the first is lower: 2.39 for the first, 2.5 for the second.

Going from SGPEAARAQGWVSGEEFYMLTRRV [G9Q] to SGPEAARAYGWVSGEEFYMLTRRV [G9Y], the protein stability index falls from 2.51 to 2.21.

Compared with SGPEAARALGWVSGEEFYMLTRRV [G9L], SGPEAARARGWVSGEEFYMLTRRV [G9R] is lower in protein stability index: 2.95 for the first, 1.95 for the second.

First: SGPEAARACGWVSGEEFYMLTRRV [G9C]
Second: SGPEAARASGWVSGEEFYMLTRRV [G9S]
The protein stability index of the first is lower: 1.59 for the first, 2.42 for the second.

Going from SGPEAARAFGWVSGEEFYMLTRRV [G9F] to SGPEAARAEGWVSGEEFYMLTRRV [G9E], the protein stability index rises from 2.06 to 2.5.

Going from SGPEAARANGWVSGEEFYMLTRRV [G9N] to SGPEAARATGWVSGEEFYMLTRRV [G9T], the protein stability index falls from 2.13 to 1.92.

First: SGPEAARAMGWVSGEEFYMLTRRV [G9M]
Second: SGPEAARAIGWVSGEEFYMLTRRV [G9I]
The protein stability index of the first is lower: 1.97 for the first, 2.25 for the second.

First: SGPEAARAHGWVSGEEFYMLTRRV [G9H]
Second: SGPEAARAVGWVSGEEFYMLTRRV [G9V]
The protein stability index of the first is higher: 2.03 for the first, 1.85 for the second.

First: SGPEAARQGGWVSGEEFYMLTRRV [A8Q]
Second: SGPEAARKGGWVSGEEFYMLTRRV [A8K]
The protein stability index of the first is higher: 2.65 for the first, 2.13 for the second.

First: SGPEAARHGGWVSGEEFYMLTRRV [A8H]
Second: SGPEAARIGGWVSGEEFYMLTRRV [A8I]
The protein stability index of the first is higher: 1.81 for the first, 1.76 for the second.

Compared with SGPEAARWGGWVSGEEFYMLTRRV [A8W], SGPEAAREGGWVSGEEFYMLTRRV [A8E] is higher in protein stability index: 2.71 for the first, 3.22 for the second.

Going from SGPEAARCGGWVSGEEFYMLTRRV [A8C] to SGPEAARDGGWVSGEEFYMLTRRV [A8D], the protein stability index rises from 1.97 to 2.43.

Compared with SGPEAARNGGWVSGEEFYMLTRRV [A8N], SGPEAARSGGWVSGEEFYMLTRRV [A8S] is higher in protein stability index: 2.18 for the first, 2.31 for the second.

Compared with SGPEAARTGGWVSGEEFYMLTRRV [A8T], SGPEAARLGGWVSGEEFYMLTRRV [A8L] is lower in protein stability index: 2.24 for the first, 2.02 for the second.

First: SGPEAARMGGWVSGEEFYMLTRRV [A8M]
Second: SGPEAARYGGWVSGEEFYMLTRRV [A8Y]
The protein stability index of the first is higher: 1.8 for the first, 1.76 for the second.

Going from SGPEAARRGGWVSGEEFYMLTRRV [A8R] to SGPEAARPGGWVSGEEFYMLTRRV [A8P], the protein stability index rises from 2.03 to 2.05.

Going from SGPEAARGGGWVSGEEFYMLTRRV [A8G] to SGPEAARFGGWVSGEEFYMLTRRV [A8F], the protein stability index falls from 2.15 to 1.7.

Going from SGPEAARVGGWVSGEEFYMLTRRV [A8V] to SGKEAARAGGWVSGEEFYMLTRRV [P3K], the protein stability index rises from 2.25 to 2.37.

First: SGLEAARAGGWVSGEEFYMLTRRV [P3L]
Second: SGQEAARAGGWVSGEEFYMLTRRV [P3Q]
The protein stability index of the first is lower: 1.91 for the first, 2.44 for the second.

Compared with SGTEAARAGGWVSGEEFYMLTRRV [P3T], SGWEAARAGGWVSGEEFYMLTRRV [P3W] is lower in protein stability index: 2.4 for the first, 1.74 for the second.

Compared with SGMEAARAGGWVSGEEFYMLTRRV [P3M], SGSEAARAGGWVSGEEFYMLTRRV [P3S] is lower in protein stability index: 2.2 for the first, 2.02 for the second.

First: SGYEAARAGGWVSGEEFYMLTRRV [P3Y]
Second: SGREAARAGGWVSGEEFYMLTRRV [P3R]
The protein stability index of the first is lower: 1.49 for the first, 1.78 for the second.

Compared with SGVEAARAGGWVSGEEFYMLTRRV [P3V], SGNEAARAGGWVSGEEFYMLTRRV [P3N] is higher in protein stability index: 2.14 for the first, 2.59 for the second.

Going from SGPEAARAGGQVSGEEFYMLTRRV [W11Q] to SGPEAARAGGYVSGEEFYMLTRRV [W11Y], the protein stability index falls from 3.92 to 2.75.

First: SGPEAARAGGTVSGEEFYMLTRRV [W11T]
Second: SGPEAARAGGAVSGEEFYMLTRRV [W11A]
The protein stability index of the first is lower: 3.09 for the first, 3.56 for the second.

Going from SGPEAARAGGHVSGEEFYMLTRRV [W11H] to SGPEAARAGGKVSGEEFYMLTRRV [W11K], the protein stability index falls from 4.33 to 2.21.

Going from SGPEAARAGGDVSGEEFYMLTRRV [W11D] to SGPEAARAGGRVSGEEFYMLTRRV [W11R], the protein stability index falls from 3.52 to 3.19.

First: SGPEAARAGGVVSGEEFYMLTRRV [W11V]
Second: SGPEAARAGGGVSGEEFYMLTRRV [W11G]
The protein stability index of the first is lower: 3.19 for the first, 3.28 for the second.

First: SGPEAARAGGMVSGEEFYMLTRRV [W11M]
Second: SGPEAARAGGPVSGEEFYMLTRRV [W11P]
The protein stability index of the first is lower: 2.76 for the first, 3.19 for the second.

Going from SGPEAARAGGNVSGEEFYMLTRRV [W11N] to SGPEAARAGGIVSGEEFYMLTRRV [W11I], the protein stability index falls from 3.85 to 2.6.

Going from SGPEAARAGGLVSGEEFYMLTRRV [W11L] to SGPEAARAGGSVSGEEFYMLTRRV [W11S], the protein stability index falls from 3.09 to 2.89.

Going from SGPEAARAGGFVSGEEFYMLTRRV [W11F] to SGPEAARAGGCVSGEEFYMLTRRV [W11C], the protein stability index rises from 2.05 to 2.79.

First: SGPEAARAGGEVSGEEFYMLTRRV [W11E]
Second: SGPEATRAGGWVSGEEFYMLTRRV [A6T]
The protein stability index of the first is higher: 4.09 for the first, 2.86 for the second.

Going from SGPEAYRAGGWVSGEEFYMLTRRV [A6Y] to SGPEAWRAGGWVSGEEFYMLTRRV [A6W], the protein stability index falls from 2.4 to 1.06.

Going from SGPEARRAGGWVSGEEFYMLTRRV [A6R] to SGPEASRAGGWVSGEEFYMLTRRV [A6S], the protein stability index rises from 2.43 to 3.01.

Going from SGPEAKRAGGWVSGEEFYMLTRRV [A6K] to SGPEANRAGGWVSGEEFYMLTRRV [A6N], the protein stability index rises from 2.12 to 2.85.

Compared with SGPEAPRAGGWVSGEEFYMLTRRV [A6P], SGPEALRAGGWVSGEEFYMLTRRV [A6L] is higher in protein stability index: 2.21 for the first, 3.07 for the second.

Going from SGPEAGRAGGWVSGEEFYMLTRRV [A6G] to SGPEACRAGGWVSGEEFYMLTRRV [A6C], the protein stability index falls from 3.16 to 2.31.

Compared with SGPEAQRAGGWVSGEEFYMLTRRV [A6Q], SGPEAIRAGGWVSGEEFYMLTRRV [A6I] is lower in protein stability index: 2.13 for the first, 2.02 for the second.

Compared with SGPEADRAGGWVSGEEFYMLTRRV [A6D], SGPEAMRAGGWVSGEEFYMLTRRV [A6M] is lower in protein stability index: 2.35 for the first, 1.7 for the second.

First: SGPEAHRAGGWVSGEEFYMLTRRV [A6H]
Second: SGPEAFRAGGWVSGEEFYMLTRRV [A6F]
The protein stability index of the first is higher: 2.24 for the first, 1.68 for the second.

Going from SGPEAERAGGWVSGEEFYMLTRRV [A6E] to SGPEAVRAGGWVSGEEFYMLTRRV [A6V], the protein stability index rises from 2.65 to 3.13.

Compared with SGPEAARAGIWVSGEEFYMLTRRV [G10I], SGPEAARAGWWVSGEEFYMLTRRV [G10W] is lower in protein stability index: 3.36 for the first, 2.53 for the second.

Compared with SGPEAARAGRWVSGEEFYMLTRRV [G10R], SGPEAARAGKWVSGEEFYMLTRRV [G10K] is higher in protein stability index: 2.56 for the first, 2.64 for the second.

Going from SGPEAARAGPWVSGEEFYMLTRRV [G10P] to SGPEAARAGMWVSGEEFYMLTRRV [G10M], the protein stability index falls from 2.37 to 2.31.

First: SGPEAARAGEWVSGEEFYMLTRRV [G10E]
Second: SGPEAARAGCWVSGEEFYMLTRRV [G10C]
The protein stability index of the first is higher: 3.31 for the first, 1.82 for the second.
